Data on one variant can be found in article PMC3197643 (2011).

First the molecules themselves.
B1: V5-tagged full-length OX1R [mouse] / Myc-tagged Dynlt1 [mouse] (parent complex)
chain 1: MEPSATPGAQPGVPTSSGEPFHLPPDYEDEFLRYLWRDYLYPKQYEWVLIAAYVAVFLIALVGNTLVCLAVWRNHHMRTVTNYFIVNLSLADVLVTAICLPASLLVDITESWLFGQALCKVIPYLQAVSVSVAVLTLSFIALDRWYAICHPLLFKSTARRARGSILGIWAVSLAVMVPQAAVMECSSVLPELANRTRLFSVCDEHWADELYPKIYHSCFFIVTYLAPLGLMAMAYFQIFRKLWGRQIPGTTSALVRNWKRPSEQLEAQHQGLCTEPQPRARAFLAEVKQMRARRKTAKMLMVVLLVFALCYLPISVLNVLKRVFGMFRQASDREAVYACFTFSHWLVYANSAANPIIYNFLSGKFREQFKAAFSCCLPGLGPGSSARHKSLSLQSRCSVSKVSEHVVLTTVTTVLS
chain 2: MEDFQASEETAFVVDEVSSIVKEAIESAIGGNAYQHSKVNQWTTNVLEQTLSQLTKLGRPFKYIVTCVIMQKNGAGLHSASSCFWDSSTDGSCTVRWENKTMYCIVSTFGLSI

The variants in the assay derive from B1. In words: co-IP, quantification of Western blotting bands; parent: 100; read off a plot.
For chain 1 T409A, chain 1 T412A, the percent of parent was approximately 28 % vs OX1R wild-type.
